B1: wild-type US28 receptor with a C-terminal natural peptide tag (US28-NP) [human cytomegalovirus (HCMV)] / LgBiT-Gα12 [not stated] (parent)
chain 1: MTPTTTTAELTTEFDYDEDATPCVFTDVLNQSKPVTLFLYGVVFLFGSIGNFLVIFTITWRRRIQCSGDVYFINLAAADLLFVCTLPLWMQYLLDHNSLASVPCTLLTACFYVAMFASLCFITEIALDRYYAIVYMRYRPVKQACLFSIFWWIFAVIIAIPHFMVVTKKDNQCMTDYDYLEVSYPIILNVELMLGAFVIPLSVISYCYYRISRIVAVSQSRHKGRIVRVLIAVVLVFIIFWLPYHLTLFVDTLKLLKWISSSCEFERSLKRALILTESLAFCHCCLNPLLYVFVGTKFRQELHCLLAEFRQRLFSRDVSWYHSMSFSRRSSPSRRETSSDTLSDEVCRVSQIIP
chain 2: MSGVVRTLSRCLLPAEAGGARERRAGSGARDAEREARRRSRDIDALLARERRAVRRLVKILLLGAGESGKSTFLKQMRIIHGREFDQKALLEFRDTIFDNILKGSRVLVDARDKLGIPWQYSENEKHGMFLMAFENKAGLPVEPATFQLYVPALSALWRDSGIREAFSRRSEFQLGESVKYFLDNLDRIGQLNYFPSKQDILLARKATKGIVEHDFVIKKIPFKMVDVGGQRSQRQKWFQCFDGITSILFMVSSSEYDQVLMEDRRTNRLVESMNIFETIVNNKLFFNVSIILFLNKMDLLVEKVKTVSIKKHFPDFRGDPHRLEDVQRYLVQCFDRKRRNRSKPLFHHFTTAIDTENVRFVFHAVKDTILQENLKDIMLQ
B2: wild-type US28 receptor with a C-terminal natural peptide tag (US28-NP) [human cytomegalovirus (HCMV)] / LgBiT-Gαq [not stated] (parent)
chain 1: B1 chain 1
chain 2: MTLESIMACCLSEEAKEARRINDEIERQLRRDKRDARRELKLLLLGTGESGKSTFIKQMRIIHGSGYSDEDKRGFTKLVYQNIFTAMQAMIRAMDTLKIPYKYEHNKAHAQLVREVDVEKVSAFENPYVDAIKSLWNDPGIQECYDRRREYQLSDSTKYYLNDLDRVADPAYLPTQQDVLRVRVPTTGIIEYPFDLQSVIFRMVDVGGQRSERRKWIHCFENVTSIMFLVALSEYDQVLVESDNENRMEESKALFRTIITYPWFQNSSVILFLNKKDLLEEKIMYSHLVDYFPEYDGPQRDAQAAREFILKMFVDLNPDSDKIIYSHFTCATDTENIRFVFAAVKDTILQLNLKEYNLV

Variants of: B1
Test: NanoBiT nLuc complementation assay in live HEK-293 cells (Nano-Glo live cell assay), area under the curve
Conditions: with LgBiT-Gα12, 18 hours post-transfection media exchanged with serum-free DMEM, 6 hours later luciferase activity monitored for 60 minutes, parent: 2.2e+07, read off a plot

Variant	response (Arbitrary Units)
chain 1 D128A R129A Y130A	2.8e+06
chain 1 K223A	8.9e+06
chain 1 R225A	1.1e+07
chain 1 S218A	6.8e+06
chain 1 S220A	1.7e+07

Variants of: B2
Test: as above
Conditions: with LgBiT-Gαq, 18 hours post-transfection media exchanged with serum-free DMEM, 6 hours later luciferase activity monitored for 60 minutes, parent: 2.9e+07, read off a plot

Variant	response (Arbitrary Units)
chain 1 D128A R129A Y130A	6e+06
chain 1 K223A	1.7e+07
chain 1 R225A	1.6e+07
chain 1 S218A	1.8e+07
chain 1 S220A	3e+07

Source: PMC11784217
